In patent US20240123058A1:

Assays:
[1] = biological target: EBV gB protein ectodomain (24-683 aa) of the substituted M81 strain gB protein, C-terminal 6×His tag (EBV M81 strain) (UniProt P0C762); assay: competition ELISA on coated gB: unlabelled primary antibody at 10 µg/mL, then HRP-labelled 3A3 as secondary
[2] = biological target: EBV gB protein ectodomain (24-683 aa) of the substituted M81 strain gB protein, C-terminal 6×His tag (EBV M81 strain) (UniProt P0C762); assay: competition ELISA on coated gB: unlabelled primary antibody at 10 µg/mL, then HRP-labelled AMMO5 as secondary
[3] = biological target: EBV gB protein ectodomain (24-683 aa) of the substituted M81 strain gB protein, C-terminal 6×His tag (EBV M81 strain) (UniProt P0C762); assay: competition ELISA on coated gB: unlabelled primary antibody at 10 µg/mL, then HRP-labelled 3A5 as secondary

Substance: mouse monoclonal antibody 72A1
- competition rate [1]: -1.4%
- competition rate [2]: -9.3%
- competition rate [3]: 8%
